Experimental data reported in patent US20120058906A1 (published 2012).

Tests used:
[1] = target: T1, rHuman EGF R/Fc Chimera, CF (R&D Systems Cat#344-ER) (human, UniProt P00533 25-645); assay: MSD ECL multi-spot plate; Fab 2.0 nM; blank spot 316
T1 construct: also called epidermal growth factor receptor; Fc part of the bought chimera not given

[2] = target: T2, rHuman Notch-1/Fc Chimera, CF (R&D Systems Cat#3647-TK) (human, UniProt P46531 19-526); assay: as above
T2 construct: Fc part of the bought chimera not given

[3] = target: T3, Recombinant Human DLL4 (R&D Systems Cat#1506-D4/CF) (human, UniProt Q9NR61 27-524); assay: as above
T3 construct: also called delta-like protein 4

[4] = target: T4, rHuman CD44/Fc Chimera, CF (R&D Systems Cat#3660-CD) (human, UniProt P16070 21-220); assay: as above
T4 construct: Fc part of the bought chimera not given

[5] = target: T5, rHuman HGF R/c-MET/Fc Chimera, CF (R&D Systems Cat#358-MT/CF) (human, UniProt P08581 25-932); assay: as above
T5 construct: also called HGF R/Fc; hepatocyte growth factor receptor; Fc part of the bought chimera not given

[6] = target: T6, rHuman Erythropoietin R/Fc Chimera, CF (R&D Systems Cat#963-ER) (human, UniProt P19235 25-250); assay: as above
T6 construct: also called EPO R/Fc; Epo R; Fc part of the bought chimera not given
T6 sequence: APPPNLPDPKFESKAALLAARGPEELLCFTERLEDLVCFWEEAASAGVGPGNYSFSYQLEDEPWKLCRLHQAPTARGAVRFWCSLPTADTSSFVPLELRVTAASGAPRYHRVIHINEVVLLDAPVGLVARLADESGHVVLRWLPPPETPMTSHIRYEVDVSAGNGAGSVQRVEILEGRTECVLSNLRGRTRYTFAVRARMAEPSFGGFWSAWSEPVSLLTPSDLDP

[7] = target: T7, rHuman IGF-1 sR, (IGF-1 sR), CF (R&D Systems Cat#391-GR) (human, UniProt P08069 31-932); assay: as above
T7 construct: also called insulin-like growth factor-1 soluble receptor; IGF-R1

[8] = target: T8, rHuman ErbB2/Fc Chimera, CF (R&D Systems Cat#1129-ER) (human, UniProt P04626 23-652); assay: as above
T8 construct: also called HER2/neu; human epidermal growth factor 2 receptor; Fc part of the bought chimera not given

[9] = target: T9, rHuman CD44/Fc Chimera, CF (R&D Systems Cat#3660-CD) (human, UniProt P16070 21-220); assay: MSD ECL multi-spot plate, antigen immobilized; Fab 1.6 nM; blank spot 565
T9 construct: Purchased Fc chimera; not shown: Fc portion of the purchased chimera

[10] = target: T10, rHuman EGF R/Fc Chimera, CF (R&D Systems Cat#344-ER) (human, UniProt P00533 25-645); assay: as above
T10 construct: Purchased Fc chimera; not shown: Fc portion of the purchased chimera

[11] = target: T11, rHuman Erythropoietin R/Fc Chimera, CF (R&D Systems Cat#963-ER) (human, UniProt P19235 25-250); assay: as above
T11 construct: Purchased Fc chimera; also called EPO R/Fc; Epo R; not shown: Fc portion of the purchased chimera
T11 sequence: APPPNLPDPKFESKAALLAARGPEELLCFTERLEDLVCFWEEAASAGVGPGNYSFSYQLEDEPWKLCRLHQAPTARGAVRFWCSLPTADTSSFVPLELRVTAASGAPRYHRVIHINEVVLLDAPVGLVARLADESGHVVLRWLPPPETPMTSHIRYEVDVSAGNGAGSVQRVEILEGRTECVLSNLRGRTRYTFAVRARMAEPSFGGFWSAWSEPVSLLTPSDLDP

[12] = target: T12, rHuman Notch-1/Fc Chimera, CF (R&D Systems Cat#3647-TK) (human, UniProt P46531 19-526); assay: as above
T12 construct: Purchased Fc chimera; not shown: Fc portion of the purchased chimera

[13] = target: T13, rHuman HGF R/c-MET/Fc Chimera, CF (R&D Systems Cat#358-MT/CF) (human, UniProt P08581 25-932); assay: as above
T13 construct: Purchased Fc chimera; also called HGF R/Fc; not shown: Fc portion of the purchased chimera

[14] = target: T14, rHuman EGF R/Fc Chimera, CF (R&D Systems Cat#344-ER) (human, UniProt P00533 25-645); assay: ECL (MSD multi-spot), antigen on plate, Fab 0.4 nM
T14 construct: Bought Fc chimera; also called ErbB-1; not shown: Fc of the bought chimera

[15] = target: T15, rHuman HGF R/c-MET/Fc Chimera, CF (R&D Systems Cat#358-MT/CF) (human, UniProt P08581 25-932); assay: ECL (MSD multi-spot), antigen on plate, Fab 0.4 nM
T15 construct: Bought Fc chimera; also called HGF R/Fc; not shown: Fc of the bought chimera

[16] = target: T16, rHuman Notch-1/Fc Chimera, CF (R&D Systems Cat#3647-TK) (human, UniProt P46531 19-526); assay: ECL (MSD multi-spot), antigen on plate, Fab 0.4 nM
T16 construct: Bought Fc chimera; not shown: Fc of the bought chimera

[17] = target: T17, rHuman IGF-1 sR (insulin-like growth factor-1 soluble receptor), CF (R&D Systems Cat#391-GR) (human, UniProt P08069 31-932); assay: ECL (MSD multi-spot), antigen on plate, Fab 0.4 nM
T17 construct: Bought soluble receptor; also called IGF-R1

[18] = target: T18, rHuman ErbB2/Fc Chimera, CF (R&D Systems Cat#1129-ER) (human, UniProt P04626 23-652); assay: ECL (MSD multi-spot), antigen on plate, Fab 0.4 nM
T18 construct: Bought Fc chimera; also called HER2/neu; not shown: Fc of the bought chimera

[19] = target: T19, rHuman CD44/Fc Chimera, CF (R&D Systems Cat#3660-CD) (human, UniProt P16070 21-220); assay: ECL (MSD multi-spot), antigen on plate, Fab 0.4 nM
T19 construct: Bought Fc chimera; not shown: Fc of the bought chimera
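Also: blank spot per well as comparator with Hit at signal to blank ratio of 4 or more.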

B1: Fab VH1-8_IGHD2-2*01_IGHJ6*01 & L12_IGKJ1*01 (Fab, V domains shown)
VH: QVQLVQSGAEVKKPGASVKVSCKASGYTFTSYDINWVRQATGQGLEWMGWMNPNSGNTGYAQKFQGRVTMTRNTSISTAYMELSSLRSEDTAVYYCARGGYCSSTSCYADYYYYYGMDVWGQGTTVTVSS
VL: not shown
B1 was tested, and the ECL signal [1] was 424 ECL signal, the ECL signal [2] was 539 ECL signal and the ECL signal [3] was 605 ECL signal. The ECL signal [4] was 447 ECL signal, the ECL signal [5] was 356 ECL signal and the ECL signal [6] was 433 ECL signal. The ECL signal [7] was 367 ECL signal and the ECL signal [8] was 382 ECL signal.

B2: Fab VH5-51_IGHD5-18*01>3_IGHJ4*01_G100K & V3-4_IGLJ1*01 (Fab, V domains shown)
VH: EVQLVQSGAEVKKPGESLKISCKGSGYSFTSYWIGWVRQMPGKGLEWMGIIYPGDSDTRYSPSFQGQVTISADKSISTAYLQWSSLKASDTAMYYCARRKYSYGYDYFDYWGQGTLVTVSS
VL: QTVVTQEPSFSVSPGGTVTLTCGLSSGSVSTSYYPSWYQQTPGQAPRTLIYSTNTRSSGVPDRFSGSILGNKAALTITGAQADDESDYYCVLYMGSGISYVFGTGTKVTVL
notes: It was expressed as a Fab: CH1 with tags from Plasmid A and lambda CL from Plasmid E; also called Fab No. 22
For B2, the ECL signal [9] was 938 ECL signal, the ECL signal [10] was 1180 ECL signal and the ECL signal [11] was 899 ECL signal. It also gave an ECL signal [12] of 816 ECL signal and an ECL signal [13] of 1440 ECL signal.

B3: Fab VH1-46_IGHD6-6*01_IGHJ1*01_S102A_S103P_S104F & L6_IGKJ1*01_S30N (Fab, V domains shown)
VH: QVQLVQSGAEVKKPGASVKVSCKASGYTFTSYYMHWVRQAPGQGLEWMGIINPSGGSTSYAQKFQGRVTMTRDTSTSTVYMELSSLRSEDTAVYYCAREEYAPFSAEYFQHWGQGTLVTVSS
VL: EIVLTQSPATLSLSPGERATLSCRASQSVNSYLAWYQQKPGQAPRLLIYDASNRATGIPARFSGSGSGTDFTLTISSLEPEDFAVYYCQQRSNWPPWTFGQGTKVEIKR
notes: Fab
B3 was tested, and the ECL signal [14] was 173 ECL signal, the ECL signal [15] was 120 ECL signal and the ECL signal [16] was 197 ECL signal. The ECL signal [17] was 141 ECL signal, the ECL signal [18] was 203 ECL signal and the ECL signal [19] was 176 ECL signal.
